In the nanobody polyreactivity screen of Harvey et al. (2022):

Assay: yeast display, Sf9 membrane polyspecificity reagent, FACS + sequencing; frameworks hold sequencing errors
Procedure, shortened: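 Galactose induction of a Saccharomyces cerevisiae BJ5465 synthetic nanobody display library ran 36–48 hours. The cells were then stained for 1 hour at 4 °C with 10% biotinylated, detergent-solubilized Sf9 membrane reagent, pulled down on streptavidin microbeads and FACS-sorted into low and high (top ~1%) gates on expression and reagent-binding fluorescence. Labels for polyreactivity follow the gate of origin.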

Row | Sequence | polyreactivity (PSR sort gate)
1 | QVQLEESGGGLVQAGGSLRLSCAASGSIFEYYAMGWYRPAPGKERELVAAISSGGPTYYADSVKGRFTISRDNAKNTVYLQMNSLKPEDTAVYYCNADLWYPDYAYWGQGTQLTVSS | low polyreactivity
2 | QVQLEESGGGLVQAGGSLRLSCAASGSIFFWYAMGWSRQAPGKERELVAAISSSGSTNYADSVKGRFTISRDNAKNTVYLQMNSLKPEDTAVYYCATRKYVYYPVQYEFWGQGTQVTVSS | high polyreactivity
3 | QVQLEESGGGLVQAGGSLRLSCAASGSIFGLYAMGWYRQAPGKERELVAAINQSGGSTSYADSVKGRFTISRDNAKNTVYLQMNSLKPEDTAVYYCNRVRLNTEGFDYWGQGTQVTVSS | low polyreactivity
4 | QVQLEESGGGLVQAGGSLRLSCAASGSIFGYNAMGWYRQAPGKERELVAAINVDGGRTYYADSVKGRFTISRDNAKNTVYLQMNSLTPEDTAVFYCAAAYRLQVGRREYWGQGTQVTVSS | high polyreactivity
5 | QVQLEESGGGLVQAGGSLRLSCAASGSIFGYYAMGWYRKATGKEREFVADINSRDGGTYYADSVKGRFTISRDNAKNTVYLQMNSLKPEDTAVYYCAAPYYAAWVAVAIEYDYWGQGTQVTVSS | low polyreactivity
6 | QVQLEESGGGLVQAGGSLRLSCAASGSIFRRNVMGWYRQAPGKERELVADINYSGGSTFYADSVKGRFTISRDNAKNTVYLQMNSLKPEDTAVYYCKSSPYREKHGYWGQGTQVTVSS | low polyreactivity
7 | QVQLEESGGGLVQAGGSLRLSCAASGSIFRWNAMGWSRQAPGKERELVAAISSGTSTNYADSVKGRFTISRDNAKNTVYVQMNSQKPEDTAVYYCAARGRKNQRRYGYWGQGTQVTVSS | low polyreactivity
8 | QVQLEESGGGLVQAGGSLRLSCAASGSIFRYYAMGWYRQAPGKERELVAVITRGGSTYYADSVKGRFTISRDNAKNTVYLQMNSLKPEDTAVYYCAADYWPAGLDRGYWGQGTQVTVSS | low polyreactivity
9 | QVQLEESGGGLVQAGGSLRLSCAASGSIFVGYAMGWYRQAPGKEREFVAAINYRGGSTFYADSVKGRFTISRDNAKNTVYLQMNSLKPEDTAVYYCAARYSGNRGVPKGYRYNYWGQGTQVTVSS | low polyreactivity
10 | QVQLEESGGGLVQAGGSLRLSCAASGSIFVGYDMGWYRQAPGKVWELVAAITSSGVGSTYYADSVKGRFTISRDNAKNTVYLQMNSLKPEDTAVYYCAARTSLWWFLKYDYWGEGTQVTVSS | low polyreactivity
11 | QVQLEESGGGLVQAGGSLRLSCAASGSIFYSNAMGWYRQAPGKERELVAAISVSGVSTYYADSVKGRFTISRDNAKNTVYLQMNSLKPEDTAVYYCAAQYVTRGLYLVAFFSYDYWGQGTQVTVSS | low polyreactivity
12 | QVQLEESGGGLVQAGGSLRLSCAASGSILRVNVMVWYRQAPGKERELVAAITSGGRTYYADSVKGRFTISRDNAKNTVYLQMNSLIQEDTAVYYCAAKFFRNTYSYGMDYWGQGTQVTVSS | high polyreactivity
13 | QVQLEESGGGLVQAGGSLRLSCAASGSISVRYTMGSYRQAPGKERELVAGISRSGGTTYADSVKGRFTISRDNGKNTVYLQMNSLKQEDTAVYYCAAELRRGSGRSYKGYYYWGQGTQVSVSS | low polyreactivity
14 | QVQLEESGGGLVQAGGSLRLSCAASGSISYNNVMGWYRQAPGKERELVARIRSGGSTYYADSVKGRFTISRDNAKNTVYLLMNSLKQEDTAVYYCAARTKRQAGSYGYWGQGTQVTVSS | high polyreactivity
15 | QVQLEESGGGLVQAGGSLRLSCAASGSTFCYYPMGWYRQAPGKEREFVAAISSSGGSTYYADYVKGRFTISRDNAKNTVYFQMNSLKPEDTAVYYCARVGFPGFYWGQGTEVTVSS | high polyreactivity
16 | QVQLEESGGGLVQAGGSLRLSCAASGSTFEGYAMGWYRQAPGKERELVAVISSGSITKYADSVKGRFTISRDNAKNTVFLQINSLKPEDTAVYYCARKGGIIFASYLLGGYWGQGTQVTVSS | low polyreactivity
17 | QVQLEESGGGLVQAGGSLRLSCAASGSTFEVYAMGWYRQAPGKERELVAVINVSDGSTYYADSVKGRFTISRDYAKNTVYLQMNSMKPEDTAVYYCADYLYNRPYQLTGYYDGYGYWGQGTQVTVSS | low polyreactivity
18 | QVQLEESGGGLVQAGGSLRLSCAASGSTFFPYAMGWYRQAPGKERELVAGISSDGGTSYADSVKGRFTISRDTAKNTVYLQMNSLKPEDTAVYYCNARAVNVRDYINYDYWGQGTQVTVSS | low polyreactivity
19 | QVQLEESGGGLVQAGGSLRLSCAASGSTFGNYAKGWYRQAPGKERELVAAITATGGRTYYADSVKGRFTISRDNAKNTVYLQMNSVKPEDTAVYYCAAGYRTGGDSGDYWGQGTQVTVSS | high polyreactivity
20 | QVQLEESGGGLVQAGGSLRLSCAASGSTFGPNTMGRYRQAPGKERELVAAISRAGRTYYADSVKGRFTISRDNAKNTVYLQINSLKPEDTAVYYCNAGRSYHWRAGREYDYWGQGTQVTVSS | low polyreactivity
21 | QVQLEESGGGLVQAGGSLRLSCAASGSTFGWYAMGWYRQAPGKERELVASITSGGRTNYADSVKGRFTISRDNAKNTVYLQMNCLKPEDTAVYYCAKRVYGSNSLYDYWGQGTQVTVTS | low polyreactivity
22 | QVQLEESGGGLVQAGGSLRLSCAASGSTFGYYAMGWYRKAPGKERELVAAISRSGGSTYYADSVKGRFTISRDNAKNTVYLQMNSLKPEDTAVYYCAAKVYGAVYHYYYWGQGTQVTVSS | high polyreactivity

Row | Sequence | polyreactivity (PSR sort gate)
23 | QVQLEESGGGLVQAGGSLRLSCAASGSTFGYYTMGWYRQAPGKERELVAAISWSGGSTYYADSVKGRFTISRDNAKNTVYLQMNSLKPEDTAVYYCAALGYTYKYYSYYWGQGTQVTVSS | high polyreactivity
24 | QVQLEESGGGLVQAGGSLRLSCAASGSTFKLYTMGWYRQAPGKEREFVATITSGGRTNYADSVKGRFTISRDNAKNTVYLQMNSLKPEDTAVYYCAATWLRVKYRFKGYDYWGQGTQVTVSS | high polyreactivity
25 | QVQLEESGGGLVQAGGSLRLSCAASGSTFRAYAMGWYRQAPGKERELVAAITSTTDTYYADSVKGRFTISRDNAKNTVYLQMNSLKPEDTAVYYCASVWVWTYDYWGQGTQVTVSS | low polyreactivity
26 | QVQLEESGGGLVQAGGSLRLSCAASGSTFRDNALGWYRQAPGKETELVAGITRGGITNYADSVKGRFTISRDNAKNTVYLQMNSLIPEDTAVYYCAAEVTGTYYDYDYWGQGTQVTVSS | low polyreactivity
27 | QVQLEESGGGLVQAGGSLRLSCAASGSTFTFNAMGWYRQAPGKERELVAVISSGGSTYYAESVKGRFTISRDNAKNTFYLQMNSLKPEDTAVYYCNKVYGYFGQYYLRYNYWGQGTQVTVSS | low polyreactivity
28 | QVQLEESGGGLVQAGGSLRLSCAASGSTFTVNGMGWYRQAPGKERELVAAIDGGDGSTYYADSVKGRFTISRDNAKNTVYLQMNSLKPEDTAVYYCAADTPCFTQYGYWGQGTQVTVSS | low polyreactivity
29 | QVQLEESGGGLVQAGGSLRLSCAASGSTFVEYAMGWYRQAPGKERELVAAITASGGSTYYADSVKGRFTISRDNAKNTVYLQMNSLKPEDTAVYYCAVTTRSRGFRDIDYWGQGTQVTVSS | low polyreactivity
30 | QVQLEESGGGLVQAGGSLRLSCAASGSTFVYYARGWYRQAPGKERELVAAITTRGGSTYYADSVKGRFTISRDNAKNTVYLQMNSLKPEDTAVYYCATKWPVYPTGYDYWGQVTQVTVSS | low polyreactivity
31 | QVQLEESGGGLVQAGGSLRLSCAASGSTFYTNAMGWYRQAPGKERELVAAISASVGSTYYADSVKGRFTISRDNAKNTVYLQMNSLKPEDTAVYYCAADVWASRRYDYWGQGTQVTVSS | low polyreactivity
32 | QVQLEESGGGLVQAGGSLRLSCAASGSTIHDNDMGWYRQAPGKERELVAAISWSGGSTTYADSVKGRFTISRDNAKNTVYLQMNSLKPEDTAVYYCAADWYYWGFIFDYWGQGTQVTVSS | high polyreactivity
33 | QVQLEESGGGLVQAGGSLRLSCAASGSTIRYNAMGWSRQAPGKERELVAGISVRGGSTYYADSVKGRFTISRDNAKNTVYLQMNSLKPEDTAVYYCATRSPYSYPNLYYWGQGTQVTVSS | high polyreactivity
34 | QVQLEESGGGLVQAGGSLRLSCAASGSTISENTMGWYRQAPGKERELVDAISFSGGSTYYADSVKGRFTISRDIAKNTVFLQMNSLKPEDTAVYYCRRFSSSPKLALGEYDFWGQGTQVTVSS | low polyreactivity
35 | QVQLEESGGGLVQAGGSLRLSCAASGSTVGIYAMGWYRPAPGKERELVAAISSRGSTYYADSVKGRFTISRDNAKNTVYLQMNSLKPEDTAVYYCAAGYAWYNYWGQGTQVTVSS | high polyreactivity
36 | QVQLEESGGGLVQAGGSLRLSCAASGSTVWANAMGWYRPAPGKERELVAAITSTGITYYADSVKGRFTISRDNAKNTVYLQMNSLTPEDTAVYYCAASFPGAGYGMDYWGQGTQVTVSS | low polyreactivity
37 | QVQLEESGGGLVQAGGSLRLSCAASGTILDSNAIGWYRQAPGKERELVAAITSCGSTYYADSVKGRFTISRDNAKNTVYLQMNSLKPEDTAVYYCAAAYLGYVAVQPSYEVGYWGQGTQVTVSS | low polyreactivity
38 | QVQLEESGGGLVQAGGSLRLSCAASGYTFGTYTMGWYRQAPGKERELVAGIDSGGTTNYADSVKGRFTISRDNAKNTVYLQMNSLKPEDTAVYYCTAYHLLIFDYYLGLYYYRGNYYWGQGTQVTVSS | low polyreactivity
39 | QVQLEESGGGLVQAGGSLRLSCAASVSIFESYAKGWNRQAPGKEREFVAAISDSGADTYYADSVKGRFTISRDNAKNTVYLQMNCLKPEDTAVYYCATDDYFSSYGYFLDGYWGQGTQVTVSS | low polyreactivity
40 | QVQLEESGGGLVQAGGSLRLSCAATASIFDYYAMGWYRQAPGKERELVAAISGTGGSTYYADSVMGRFTISRDNAKNTVYLQMNSLKPEDTAVYYCNAARVIRTALRNDGTFDYWGQGTQVTVSS | high polyreactivity
41 | QVQLEESGGGLVQAGGSLRLSCADSGITFYLNAMGWYRQAPGKERELVADITVSGGSTYYADSVKGRFTISRDNAKNTVYLEMNSLKPEDTAVYYCAADMTISYSQEYYFWGQGTQVTVSS | low polyreactivity
42 | QVQLEESGGGLVQAGGSLRLSCAPSVIIFPAYDMGWYRQAPGKERELVAAIRTSGTSTYYADSVKGRFTISRDNAKNTVYLEMNSLKPDDTAVYYCGAYQAYGGDYWGQGTQVTVSS | high polyreactivity
43 | QVQLEESGGGLVQAGGSLRLSCASYGSIFGHYAMGLYRQAPGKARELVAGISKSGGRTYDADSVKGRFTISRDNAKNTVFLQMNSLKPEDTAVYYCNALVTRYQSLDRLGDYWGQGTQVTVSS | high polyreactivity
